Read-outs that look alike come from different tables or passages of the source.

The target in assay [1] is T1, 4H56-AA.
T1 chain: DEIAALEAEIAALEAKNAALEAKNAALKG
In words: two-hybrid library CCmax.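 Note: natural log of median RNA to DNA barcode read ratio; higher means stronger binding.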

Assay [2] deals with GCN2_T. In words: two-hybrid library CCmax.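 Note: natural log of median RNA to DNA barcode read ratio; higher means stronger binding.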
The target of assay [3] is T2, 4H_APH.
T2 chain: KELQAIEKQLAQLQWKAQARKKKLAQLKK
In words: two-hybrid library CCmax.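 Note: natural log of median RNA to DNA barcode read ratio; higher means stronger binding.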 Particulars: mean of both orientations.

The target in assay [4] is 4H_GCN4. Kind of assay: two-hybrid library CCmax.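 Note: natural log of median RNA to DNA barcode read ratio; higher means stronger binding.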
Assay [5] deals with T3, 4H_BCR.
T3 chain: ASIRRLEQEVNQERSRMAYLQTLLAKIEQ
Kind of assay: two-hybrid library CCmax.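 Note: natural log of median RNA to DNA barcode read ratio; higher means stronger binding.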 Particulars: mean of both orientations.

For assay [6], the target named is T4, 4H3666-AA.
T4 chain: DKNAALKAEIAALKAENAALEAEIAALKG
Kind of assay: two-hybrid library CCmax.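 Note: natural log of median RNA to DNA barcode read ratio; higher means stronger binding.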

Assay [7] deals with T5, 4H497-AA.
T5 chain: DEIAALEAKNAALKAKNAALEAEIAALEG
In words: two-hybrid library CCmax. The settings on record: mean of both orientations.

Assay [8] deals with T6, 4H675-AA.
T6 chain: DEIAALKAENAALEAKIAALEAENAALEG
In words: two-hybrid library CCmax. The settings on record: mean of both orientations.

The target in assay [9] is T7, 4H478-AA.
T7 chain: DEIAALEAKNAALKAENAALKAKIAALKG
Kind of assay: two-hybrid library CCmax. The settings on record: mean of both orientations.

In assay [10] the target is T8, 4H656-AA.
T8 chain: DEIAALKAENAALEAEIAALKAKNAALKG
Kind of assay: two-hybrid library CCmax. Particulars: mean of both orientations.

Assay [11] addresses T9, 4H971-AA.
T9 chain: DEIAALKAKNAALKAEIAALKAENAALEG
In words: two-hybrid library CCmax. Particulars: mean of both orientations.

Assay [12] deals with T10, 4H3939-AA.
T10 chain: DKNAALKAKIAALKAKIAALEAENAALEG
In words: two-hybrid library CCmax. The settings on record: mean of both orientations.

Assay [13] has as its target T11, 4H391-AA.
T11 chain: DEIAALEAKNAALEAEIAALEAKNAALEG
Kind of assay: two-hybrid library CCmax. Particulars: mean of both orientations.

The target in assay [14] is T12, 4H428-AA.
T12 chain: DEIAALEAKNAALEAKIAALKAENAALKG
In words: two-hybrid library CCmax. The settings on record: mean of both orientations.

Assay [15] addresses T13, 4H3920-AA.
T13 chain: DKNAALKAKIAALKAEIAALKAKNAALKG
In words: two-hybrid library CCmax. Particulars: mean of both orientations.

Assay [16] has as its target T14, 4H3709-AA.
T14 chain: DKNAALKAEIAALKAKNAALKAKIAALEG
In words: two-hybrid library CCmax. The settings on record: mean of both orientations.

Assay [17] concerns the target T15, 4H446-AA.
T15 chain: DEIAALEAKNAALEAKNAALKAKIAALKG
In words: two-hybrid library CCmax. The settings on record: mean of both orientations.

The target in assay [18] is T16, 4H63-AA.
T16 chain: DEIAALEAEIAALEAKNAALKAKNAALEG
In words: two-hybrid library CCmax. The settings on record: mean of both orientations.

For assay [19], the target named is T17, 4H483-AA.
T17 chain: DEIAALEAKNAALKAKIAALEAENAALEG
Kind of assay: two-hybrid library CCmax. The settings on record: mean of both orientations.

For assay [20], the target named is T18, 4H3969-AA.
T18 chain: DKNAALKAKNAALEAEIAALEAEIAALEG
In words: two-hybrid library CCmax.

The target in assay [21] is T19, 4H464-AA.
T19 chain: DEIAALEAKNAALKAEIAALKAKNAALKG
In words: two-hybrid library CCmax. Particulars: mean of both orientations.

For assay [22], the target named is T20, 4H968-bH.
T20 chain: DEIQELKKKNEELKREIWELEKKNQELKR
Kind of assay: two-hybrid library CCNG1.

In assay [23] the target is T21, 4H967-bH.
T21 chain: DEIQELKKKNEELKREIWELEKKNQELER
Kind of assay: two-hybrid library CCNG1.

The target of assay [24] is T22, 4H953-bH.
T22 chain: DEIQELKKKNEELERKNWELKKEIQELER
In words: two-hybrid library CCNG1.

In assay [25] the target is T23, 4H3777-AA.
T23 chain: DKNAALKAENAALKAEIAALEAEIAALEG
Kind of assay: two-hybrid library CCmax.

Assay [26] has as its target T24, 4H3915-AA.
T24 chain: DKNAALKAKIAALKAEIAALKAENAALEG
Kind of assay: two-hybrid library CCmax. Particulars: mean of both orientations.

In assay [27] the target is T25, 4H380-AA.
T25 chain: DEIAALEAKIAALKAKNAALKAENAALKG
In words: two-hybrid library CCmax.

Assay [28] has as its target T26, 4H432-AA.
T26 chain: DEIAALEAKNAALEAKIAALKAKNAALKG
In words: two-hybrid library CCmax. Particulars: mean of both orientations.

For assay [29], the target named is T27, 4H3974-AA.
T27 chain: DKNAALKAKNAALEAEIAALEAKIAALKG
In words: two-hybrid library CCmax. The settings on record: mean of both orientations.

The target of assay [30] is T28, APC8401-AA.
T28 chain: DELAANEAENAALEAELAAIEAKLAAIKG
In words: two-hybrid library CCmax.

Assay [31] concerns the target T29, APC8516-AA.
T29 chain: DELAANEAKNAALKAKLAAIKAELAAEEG
In words: two-hybrid library CCmax. Particulars: mean of both orientations.

Assay [32] has as its target T30, APC9291-AA.
T30 chain: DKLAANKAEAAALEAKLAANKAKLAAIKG
Kind of assay: two-hybrid library CCmax. The settings on record: mean of both orientations.

Assay [33] concerns the target T31, APC9182-AA.
T31 chain: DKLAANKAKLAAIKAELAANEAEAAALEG
In words: two-hybrid library CCmax. Particulars: mean of both orientations.

In assay [34] the target is T32, APC9141-AA.
T32 chain: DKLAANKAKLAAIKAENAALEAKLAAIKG
Kind of assay: two-hybrid library CCmax. The settings on record: mean of both orientations.

The target in assay [35] is T33, APC9806-AA.
T33 chain: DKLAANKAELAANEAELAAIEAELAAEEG
Kind of assay: two-hybrid library CCmax. Particulars: mean of both orientations.

Chain of 4H_GCN4 (chain, as listed by the source): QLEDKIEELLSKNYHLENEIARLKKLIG

In the case of DEIAALEAEIAALEAKNAALEAKNAALKG [4H56-AA], the interaction score in assay [1] is -0.981; in assay [2], -1.38; in assay [3], -1.29; in [4], -1.92; in [5] it was -1.53.
Turning to DKNAALKAEIAALKAENAALEAEIAALKG [4H3666-AA], the interaction score in [6] is 0.925; in assay [7], -1.84; in [8], -2.19; in [9], 0.407; in assay [10] it was 0.306; in assay [11], 1.3. The interaction score in assay [12] was -1.61; in [13], -1.26; in [14], -1.27; in assay [15] it was -1.45; in [16], 1.48.
In the case of DKNAALKAKNAALEAEIAALEAEIAALEG [4H3969-AA], the interaction score in assay [17] is 1.05; in assay [18] it was -1.93; in assay [19], -1.99; in assay [20] it was -1.61; in assay [21] it was -0.91.
Regarding DEIQELKKKNEELERKNWELKKEIQELER [4H953-bH], the values for the interaction score in assay [22], in assay [23] and in [24] were -1.63, -0.919 and -0.129, respectively.
Take DKNAALKAENAALKAEIAALEAEIAALEG [4H3777-AA]: the interaction score in [17] was -0.779; in assay [25], -0.62; in assay [18] it was -1.54; in assay [26], -0.495; in assay [27] (mean of both orientations), -1.42; in [28], -1.01. In assay [29], this molecule came in with an interaction score of -0.511.
For DEIAALEAKIAALKAKNAALKAENAALKG [4H380-AA], the interaction score was -1.43 in assay [17]; -0.855 in assay [18]; -1.15 in [19]; 0.0894 in assay [12]; 0.315 in assay [26]; -1.28 in [20] (mean of both orientations). In addition, the interaction score was -1.6 in assay [21], -0.176 in [27], -1.71 in assay [28] and -0.717 in [29].
Take DELAANEAENAALEAELAAIEAKLAAIKG [APC8401-AA]: the interaction score in assay [30] was -1.51; in assay [31] it was -1.57; in assay [32] it was -1.42; in assay [33], -1.43; in [34], -1.49; in assay [35], -1.46.

For the origin of these results see PMC10397247.
